The record followed here is article PMC3093407.

In assay [1] the target is CFP-tagged human αA-crystallin wild-type (human) (UniProt P02489). The assay can be described thus: FRET or BRET; acceptor photobleaching in living HeLa cells co-transfected for 48 h; CFP fusion as donor, YFP fusion as acceptor bleached at 514 nm; FRET efficiency from ten images per construct, three experiments; room temperature.
The target of assay [2] is CFP-tagged human αB-crystallin wild-type (human) (UniProt P02511). Described as above.
Sequence of UniProt P02511 (P02511 whole entry): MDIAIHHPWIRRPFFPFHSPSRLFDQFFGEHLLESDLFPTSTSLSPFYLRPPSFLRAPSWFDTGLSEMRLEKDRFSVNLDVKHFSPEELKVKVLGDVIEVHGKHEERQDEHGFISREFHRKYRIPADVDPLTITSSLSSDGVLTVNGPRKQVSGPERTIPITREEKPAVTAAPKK

In assay [1], “YFP-tagged C-terminal truncated human αA-crystallin αA162 (from UniProt P02489 1-162) (domain or fragment)” yielded an FRET efficiency against αAwt/αAwt of 30 % lower. Still for that read-out and setting: with “YFP-tagged C-terminal truncated human αA-crystallin αA168 (from UniProt P02489 1-168) (domain or fragment)” the figure was 30 % lower. “YFP-tagged C-terminal truncated human αA-crystallin αA172 (from UniProt P02489 1-172) (domain or fragment)” showed an FRET efficiency against αAwt/αAwt in assay [1] of 50 % higher. This substance also came in with an FRET efficiency against αBwt/αAwt in assay [2] of 2 fold.
